Measured values from the supplement of paper PMC9170038.

Test system: MS2 coat protein
Assay: apparent KD of MS2 coat protein; designed switch direction (-1 OFF switch, 1 ON switch): -1; higher = weaker reporter binding
Method in brief: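 Stalled E. coli RNA polymerase transcribed designed RNA switches on Illumina chips, which were then titrated with SNAP-549-labelled MS2 coat protein, doubling from 0.7 or 1.5 nM to 3 µM. Steps lasted from 0.8–1.5 h at the lowest concentration to 10–20 min at the highest. The apparent KD is each design's median over clusters of curve-fitted normalised fluorescence.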

[1] = Eterna round: R95, input ligand: FMN 200 uM
[2] = Eterna round: R95, input ligand: microRNA oligo, concentration not stated
[3] = Eterna round: R95, input ligand: none

Sequence	apparent KD of MS2 coat protein (input ligand: FMN 200 uM)	apparent KD of MS2 coat protein (input ligand: none)	apparent KD of MS2 coat protein [1]	apparent KD of MS2 coat protein [2]	apparent KD of MS2 coat protein [3]	apparent KD of MS2 coat protein (input ligand: microRNA oligo, concentration not stated)
GACCCAGAUGUAAGGAUAUCGAGCUGCGUCAGGUUCGAGAAGGUACAUGAGGAUCACCCAUGUGCAAGCACUCC [BmEX4 B.18] (Eterna round: R97, puzzle: Brourd's mod of Exclusion 4)	32.8 nM	17.4 nM	–	–	–	–
GACCCUAGGGUCAGACCCACAAGCUUUUUGCUCGUUUUAACAUGAGGAUCACCCAUGUCUAGUGGAUCUGAUCGGGC [Geores] (puzzle: Sensor v3, turn-off variant 2)	–	–	18.4 nM	76.4 nM	17.2 nM	–
GACCGGACGUGGUCUGGUAACAUGAGGAUCACCCAUGUUGGUCUAAGAACAUGCCUUUUGCACGCUCGUCUUAUAUU [JR_SV3TOV1_Sub062] (puzzle: Sensor v3, turn-off variant 1)	–	–	66.2 nM	29.6 nM	80.5 nM	–
GACUAGUGAGGAUAUAUUUGCAGUGUACCUCGGGUGAUCGCACUUGAGGAUCACCCAAGUAGAAGGCGCGAGGG [EX2 #25] (Eterna round: R97, puzzle: Exclusion 2)	47.7 nM	355 nM	–	–	–	–
GACUGACAUGAGGAUCACCCAUGUAAGGAUAUAGGGAGCGUCGCUCCGCAACCCGCGCCUAGAAGGUACAAGGU [EX1 C.20] (Eterna round: R97, puzzle: Exclusion 1)	18.2 nM	21.2 nM	–	–	–	–
GACUGCCGAGGAUAUACAUGAGGAUCACCCAUGUGCUUCAGCAUUUUUUAAUGCAUGGGUAGAAGGCGGUAGUU [LRO-Excl3-14] (puzzle: Exclusion 3)	–	–	–	31.5 nM	–	–
GAGAAAGCAAGCAAGUGAAACAUGAGGAUCACCCAUGUCCUCAUUUGCUCGUCUUAUAAGCUAUGCGAAAGCAUAGC [Mat - Sensor v3 - turn-off var 1 - Eli Mod - D50] (puzzle: Sensor v3, turn-off variant 1)	–	–	12.3 nM	101 nM	11.3 nM	–
GAGAAAUUAUAGGAUAUCGAAAGGAUAAUUUAACGAGAAGGAUGAACAUGAGGAUCACCCAUGUGGUAUCAUGG [JL-ex6-3.11] (puzzle: Exclusion 6)	–	–	346 nM	302 nM	157 nM	–
GAGAAGGUAGGAUAUACGAAUAAAAAGGGUAGAAGAAGAACACAUGAGGAUCACCCAUGUAGAAGGACCAAGAG [Mat - Exclusion 2 - Mod of my Tesla design - D22] (puzzle: Exclusion 2)	–	–	44 nM	17.2 nM	17.6 nM	–
GAGACAGAAGGAUAUACGUCCGCGAGUGCGAUGCGCUUGGGACAUGAGGAUCACCCAUGUAGAAGGUCUAACCC [Eternabot (L1) Solution 89] (Eterna round: R97, puzzle: Exclusion 2)	318 nM	251 nM	–	–	–	–
GAGCUAUGAGGAUAUGCAUAUAUACGGUUUCGUGUGGUACUACAUGAGGAUCACCCAUGUAGAAGGCGUGGCUG [JL-ex2-2.05 mat747 mod] (puzzle: Exclusion 2)	–	–	–	14.2 nM	–	–
GAGCUGUGAGGAUAUACAUGAGGAUCACCCAUGUUAAGGAAGUCGGGAUUAAUUUGGUGUAGAAGGCGCUUAUU [JR_Ex3_Sub020] (Eterna round: R97, puzzle: Exclusion 3)	44 nM	42.5 nM	–	–	–	–
GAGGAGGUAGGAUAUACGAUAAUAUAGGGUAGAUAUAUAACACAUGAGGAUCACCCAUGUAGAAGGACCAGGAG [Mat - Exclusion 2 - Mod of my Tesla design - D64] (puzzle: Exclusion 2)	–	–	–	36.7 nM	–	–
GAGGCAUGCUGAGGUCCACACAUGAGGAUCACCCAUGUAAUGACAAGCUUUUUCCUCGUCUUAUCGCUAUCGCGUUC [Dilaenla] (Eterna round: R96, puzzle: Sensor v3, turn-off variant 1)	13.1 nM	16.3 nM	–	–	–	22.2 nM
GAGGCAUGCUGAGGUCCACACAUGAGGAUCACCCAUGUAAUGACAAGCUUUUUCCUCGUCUUAUCGCUAUCGCGUUC [Dilaenla] (puzzle: Sensor v3, turn-off variant 1)	–	–	15.5 nM	28.4 nM	15 nM	–
GAGGUACAUGAGGAUCACCCAUGUGAGGAUAUAGUGGAAGAUUGAGAGAGGUGGAGGACUAGAAGGCACAGUGG [JR_Exclu1_Sub039] (puzzle: Exclusion 1)	–	–	–	48.1 nM	–	–
GAGUGACAUGAGGAUCACCCAUGUGAGGAUAUCGGACGGACCAAAUUAACAAUAAUUGCGAGAAGGCGCAUCGG [Exclusion 1 V15] (puzzle: Exclusion 1)	–	–	76 nM	51.6 nM	54.4 nM	–
GAGUGACAUGAGGAUCACCCAUGUGAGGAUAUCGGACGGACCAAAUUAACAAUUUUUGCGAGAAGGCACAUCGG [Exclusion 1 V18] (puzzle: Exclusion 1)	–	–	–	51.9 nM	–	–

Sequence	apparent KD of MS2 coat protein (input ligand: FMN 200 uM)	apparent KD of MS2 coat protein (input ligand: none)	apparent KD of MS2 coat protein [1]	apparent KD of MS2 coat protein [2]	apparent KD of MS2 coat protein [3]	apparent KD of MS2 coat protein (input ligand: microRNA oligo, concentration not stated)
GAGUGGCAAGGAUAUACAGUGGAGAGGAUGGCAAGAGGUGGACAUGAGGAUCACCCAUGUAGAAGGUGCAGAGA [JR_Exclu2_Sub024] (puzzle: Exclusion 2)	–	–	–	150 nM	–	–
GAUAAGGUAGGAUAUACGAAGAAAGAGGGUAGUAAUAAUACACAUGAGGAUCACCCAUGUAGAAGGACCAAGAG [Mat - Exclusion 2 - Mod of my Tesla design - D44] (puzzle: Exclusion 2)	–	–	38.7 nM	23 nM	22.1 nM	–
GAUAAGGUAGGAUAUACGAAGAAAGAGGGUAGUAAUAAUACACAUGAGGAUCACCCAUGUAGAAGGACCAAUAG [Mat - Exclusion 2 - Mod of my Tesla design - D43] (puzzle: Exclusion 2)	–	–	39.1 nM	26 nM	26.4 nM	–
GAUACACAUGAGGAUCACCCAUGUGAGGAUAUGCGUACGUUGUCCGUAGGCGACGUGCGCAGAAGGCGCAAAGG [Mat - Mod of JL D97] (puzzle: Exclusion 1)	–	–	85.1 nM	41.3 nM	86 nM	–
GAUCAACAUGAGGAUCACCCAUGUGAGGAUAUGAUACUAUGUACUUCGGUACAUAGUAUCAGAAGGCAUAUGAA [Ex1-3: 36] (puzzle: Exclusion 1)	–	–	–	52 nM	–	–
GAUCAACAUGAGGAUCACCCAUGUGAGGAUAUGAUACUAUGUACUUCGGUACAUAGUAUCAGAAGGCAUGUGGA [Ex1-3: 76] (puzzle: Exclusion 1)	–	–	–	162 nM	–	–
GAUCACUGAGGAUAUACACAGAUACAAAGUAUCUGAUAGUGACAUGAGGAUCACCCAUGUAGAAGGCAGAGGUC [Omei Ex2 B8] (Eterna round: R97, puzzle: Exclusion 2)	433 nM	72.2 nM	–	–	–	–
GAUCAUGCAGGAUAUACAUGGACCAUGAAAACAUGGAUUUCACAUGAGGAUCACCCAUGUAGAAGGGCAUGAUC [Omei Ex2 A9] (Eterna round: R97, puzzle: Exclusion 2)	82.1 nM	777 nM	–	–	–	–
GAUCAUGCAGGAUAUACAUGGACCAUGAAAACAUGGUUUUCACAUGAGGAUCACCCAUGUAGAAGGGCAUGAUC [Omei Ex2 A8] (Eterna round: R97, puzzle: Exclusion 2)	275 nM	1400 nM	–	–	–	–
GAUCCACAUGAGGAUCACCCAUGUCAGGAUAUGAUACUAUGUACUUCGGUACAUAGUAUCAGAAGGGACAGAUC [Ex1-3: 2] (puzzle: Exclusion 1)	–	–	–	162 nM	–	–
GAUCCACAUGAGGAUCACCCAUGUUAGGAUAUGACAACGACUCGCACUACGUUGUUGCUCAGAAGGAGCACCCA [Eternabot (Original) Solution 10] (Eterna round: R97, puzzle: Exclusion 1)	19.1 nM	18.3 nM	–	–	–	–
GAUCCUUAAGUCAGGAUAUCAAGCAAACUCAAAAUUGAGAAGGGACAUGAGGAUCACCCAUGUCACCGAAAUAA [Reteisus] (puzzle: Brourd's mod of Exclusion 4)	–	–	10.1 nM	8.98 nM	10.6 nM	–
GAUCUGACAGGAUAUACAUGAGGAUCACCCAUGUGCGAGCUAGCGAAAGCUAGCUUAGGUAGAAGGGUCAGAUC [Ex3 dot plot directed v3] (puzzle: Exclusion 3)	–	–	–	10.7 nM	–	–
GAUGGAGAGCAGGAUAUCUUGGGUAAGCAUCAUAGAGAAGGGCUCACAUGAGGAUCACCCAUGUGGUCCUAGAA [Ateedza] (puzzle: Exclusion 6)	–	–	30.7 nM	16.2 nM	14.9 nM	–
GAUUAAUUAAUUAAUUAAUACAUGAGGAUCACCCAUGUAAUUUAAGAUCCUUAUACAAGCUUUGAUCUCGUAAUUAA [Stov1/4-A3] (Eterna round: R97, puzzle: Sensor, turn-off variant 1)	120 nM	120 nM	–	–	–	–
GAUUAAUUAAUUAAUUAAUACAUGAGGAUCACCCAUGUAAUUUAAGAUCCUUAUACAAGCUUUGAUCUCGUCUUAUA [Stov1/5-A2] (Eterna round: R97, puzzle: Sensor, turn-off variant 1)	163 nM	159 nM	–	–	–	–
GAUUAUGCGAGCUUUAGGGACAUGAGGAUCACCCAUGUUCGUCUUAUUAAUCUAGGUGCACUAACAUACCUAAAUCU [JMF 32] (puzzle: Sensor v3, turn-off variant 1)	–	–	21.9 nM	39.4 nM	21.7 nM	–
GAUUAUGCGAGCUUUAGGGACAUGAGGAUCACCCAUGUUCGUCUUAUUAGUCUAAGUACACUGACAUACCUAAAUCU [JMF 61] (puzzle: Sensor v3, turn-off variant 1)	–	–	13.3 nM	14.2 nM	12.4 nM	–
